Measurements as given in paper PMC6907347.

Target: Aβ_(1–40) fibrils (amyloid β peptide 1–40, fibrillar form) (UniProt P05067)
Assay: SPR; BIAcore 3000, CM5 chip; Aβ 1–40 fibrils immobilised by amine coupling at 2000 RU; ApoE4 injected at 20 μL/min until saturation; degassed PBS pH 7.4, 25 °C

Chain of Aβ_(1–40) fibrils (amyloid β peptide 1–40, fibrillar form) (P05067 672-711): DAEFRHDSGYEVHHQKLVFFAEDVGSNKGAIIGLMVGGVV

Kd: 5 nM
Substance: recombinant human ApoE4 (Apolipoprotein E, ε4 allele) (from UniProt P02649 19-317) (natural protein)
